Assays:
[1] = molecular target: T1, FcγRIIIa (V158)-biotin (ACRO Biosystems, Cat #CDA-H82E9) (UniProt P08637 17-208, biotin (site not stated)); assay: BLI (Octet QKe), FcγRIIIa (V158)-biotin on SA biosensor, antibody as analyte
T1 construct: Bought biotinylated protein, immobilised on an SA biosensor
Protocol: Specific experimental method for binding to FcγRIIIa (V158) were as follows. FcγRIIIa (V158)-biotin (ACRO Biosystems, Cat #CDA-H82E9) was diluted to 1 μg/mL. An SA Biosensor (Fertebio, Cat #18-5019) was immobilize in FcγRIIIa (V158)-biotin dilution to a signal of approximately 0.6 nm. […] The cycle of regeneration and neutralization was performed 3 times. The data was processed and analyzed using Data Analysis 8.2, and the sample data was fitted after sample blank (PBS) signal subtraction to obtain an affinity constant (KD).

[2] = molecular target: T2, FcγRIIIa (F158)-biotin (ACRO Biosystems, Cat #CDA-H82E8) (UniProt P08637 17-208, biotin (site not stated)); assay: BLI (Octet QKe), FcγRIIIa (F158)-biotin on SA biosensor, antibody as analyte
T2 construct: Bought biotinylated protein, immobilised on an SA biosensor
Protocol: Specific experimental method for binding to FcγRIIIa (F158) were as follows. FcγRIIIa (F158)-biotin (ACRO Biosystems, Cat #CDA-H82E8) was diluted to 1 μg/mL. An SA Biosensor (Fertebio, Cat #18-5019) was immobilize in FcγRIIIa (F158)-biotin dilution to a signal of approximately 0.6 nm.
The cycle of regeneration and neutralization was performed 3 times. The data was processed and analyzed using Data Analysis 8.2, and the sample data was fitted after sample blank (PBS) signal subtraction to obtain an affinity constant (KD).

[3] = molecular target: T3, FcRn-biotin (ACRO Biosystems, Cat #FCM-H82W4) (UniProt P55899 24-297; P61769 21-119, biotin (site not stated)); assay: BLI (Octet QKe), FcRn-biotin on SA biosensor, antibody as analyte
T3 construct: Bought biotinylated protein, immobilised on a streptavidin (SA) biosensor; the natural receptor is a heterodimer of FCGRT and B2M
Protocol: The cycle of regeneration and neutralization was performed 3 times.

T1 sequence (P08637 17-208 F176V): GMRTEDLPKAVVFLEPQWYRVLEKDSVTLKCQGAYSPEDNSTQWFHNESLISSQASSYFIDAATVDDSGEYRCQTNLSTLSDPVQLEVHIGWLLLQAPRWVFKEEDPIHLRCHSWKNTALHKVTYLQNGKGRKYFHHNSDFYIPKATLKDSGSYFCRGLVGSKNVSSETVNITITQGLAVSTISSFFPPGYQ
T2 sequence (P08637 17-208 limits assumed): as the sequence (P08637 17-208 F176V) above, with V160F counted along it

Kd [1]: 20.1 to 42.2 nM
Kd [2]: 93 to 111 nM
Kd [3]: 6.09 to 8.67 nM
B1: Simponi (golimumab), commercially available (antibody, human IgG1, kappa)
heavy: not shown
light: not shown
notes: Bought product (Janssen Biologics B.V.); It differs from Antibody A by a higher NGNA glycosylation level; also called commercially available anti-TNF-α antibody; copies: 2 + 2

Reference: patent publication US20230173068A1 (BIO THERA SOLUTIONS, published 2023)
